B1: Rad50 (S. cerevisiae, FLAG-tagged at the C terminus) [S. cerevisiae] / MBP-Rif2 (S. cerevisiae Rif2, wild type) [S. cerevisiae] (parent complex)
chain 1: MSAIYKLSIQGIRSFDSNDRETIEFGKPLTLIVGMNGSGKTTIIECLKYATTGDLPPNSKGGVFIHDPKITGEKDIRAQVKLAFTSANGLNMIVTRNIQLLMKKTTTTFKTLEGQLVAINNSGDRSTLSTRSLELDAQVPLYLGVPKAILEYVIFCHQEDSLWPLSEPSNLKKKFDEIFQAMKFTKALDNLKSIKKDMSVDIKLLKQSVEHLKLDKDRSKAMKLNIHQLQTKIDQYNEEVSEIESQLNEITEKSDKLFKSNQDFQKILSKVENLKNTKLSISDQVKRLSNSIDILDLSKPDLQNLLANFSKVLMDKNNQLRDLETDISSLKDRQSSLQSLSNSLIRRQGELEAGKETYEKNRNHLSSLKEAFQHKFQGLSNIENSDMAQVNHEMSQFKAFISQDLTDTIDQFAKDIQLKETNLSDLIKSITVDSQNLEYNKKDRSKLIHDSEELAEKLKSFKSLSTQDSLNHELENLKTYKEKLQSWESENIIPKLNQKIEEKNNEMIILENQIEKFQDRIMKTNQQADLYAKLGLIKKSINTKLDELQKITEKLQNDSRIRQVFPLTQEFQRADLEMDFQKLFINMQKNIAINNKKMHELDRRYTNALYNLNTIEKDLQDNQKSKEKVIQLLSENLPEDCTIDEYNDVLEETELSYKTALENLKMHQTTLEFNRKALEIAERDSCCYLCSRKFENESFKSKLLQELKTKTDANFEKTLKDTVQNEKEYLHSLRLLEKHIITLNSINEKIDNSQKCLEKAKEETKTSKSKLDELEVDSTKLKDEKELAESEIRPLIEKFTYLEKELKDLENSSKTISEELSIYNTSEDGIQTVDELRDQQRKMNDSLRELRKTISDLQMEKDEKVRENSRMINLIKEKELTVSEIESSLTQKQNIDDSIRSKRENINDIDSRVKELEARIISLKNKKDEAQSVLDKVKNERDIQVRNKQKTVADINRLIDRFQTIYNEVVDFEAKGFDELQTTIKELELNKAQMLELKEQLDLKSNEVNEEKRKLADSNNEEKNLKQNLELIELKSQLQHIESEISRLDVQNAEAERDKYQEESLRLRTRFEKLSSENAGKLGEMKQLQNQIDSLTHQLRTDYKDIEKNYHKEWVELQTRSFVTDDIDVYSKALDSAIMKYHGLKMQDINRIIDELWKRTYSGTDIDTIKIRSDEVSSTVKGKSYNYRVVMYKQDVELDMRGRCSAGQKVLASIIIRLALSETFGANCGVIALDEPTTNLDEENIESLAKSLHNIINMRRHQKNFQLIVITHDEKFLGHMNAAAFTDHFFKVKRDDRQKSQIEWVDINRVTY
chain 2: MEHVDSDFAPIRRSKKVVDSDKIVKAISDDLEQKNFTVLRKLNLVPIKKSVSSPKVCKPSPVKERVDHVFYQKFKSMALQELGTNYLSISYVPSLSKFLSKNLRSMKNCIVFFDKVEHIHQYAGIDRAVSETLSLVDINVVIIEMNDYLMKEGIQSSKSKECIESMGQASYSGQLDFEASEKPSNHTSDLMMMVMRKINNDESIDHIVYFKFEQLDKLSTSTIIEPSKLTEFINVLSVLEKSNNIAFKVLIYSNNVSISSLLSTSLKKKLNTKYTVFEMPILTCAQEQEYLKKMIKFTFDSGSKLLQSYNSLVTCQLNNKESNLAIFFEFLKVFPHPFTYLFNAYTEIIVQSRTFDELLDKIRNRLTIKNYPHSAYNFKKNQRLPLKLTRKVHDR

Variants of: B1
Assay: pull-down (amylose-immobilized MBP-Rif2 bait, Western blot with anti-Rad50 antibody, quantified); three independent blots; mean with SEM; parent: 100; read off a plot

percent of parent [Relative value]	Variant
~16	chain 1 K81I
